Experimental data as given in patent publication US20260116991A1.
Where “and” joins values, the source holds several entries; their conditions need not be identical. Equal entries are not always repeated. One block for each substance: values may come before it.

How the values were obtained:
[1] = target: human GPC3-His protein (human) (UniProt P51654); assay: ELISA, coated human GPC3, antibody 10 nM
[2] = target: human GPC3-His protein (human) (UniProt P51654); assay: ELISA, coated human GPC3, antibody 0.01 nM
[3] = target: human GPC3-His protein (human) (UniProt P51654); assay: ELISA, coated human GPC3, antibody 0.0001 nM
[4] = target: human GPC3-His protein (human) (UniProt P51654); assay: ELISA, coated human GPC3, antibody 100 nM
[5] = target: GPC3 endogenously expressed on HepG2 cells (UniProt P51654); assay: FACS on HepG2 cells
[6] = target: human GPC3-His protein (human) (UniProt P51654); assay: ELISA, coated human GPC3, antibody 0.001 nM
[7] = target: human GPC3-His protein (human) (UniProt P51654); assay: ELISA, coated human GPC3, antibody 1 nM
[8] = target: human GPC3-His protein (human) (UniProt P51654); assay: ELISA, coated human GPC3, antibody 0.1 nM
[9] = target: GPC3 expressed endogenously on HepG2 cells (UniProt P51654); assay: FACS on HepG2 cells, control in the row of Y035
[10] = target: human GPC3-His protein (Acro, Cat. No. GP3-H52H4) (human) (UniProt P51654); assay: ELISA, coated human GPC3-His
[11] = target: human GPC3 expressed on CHO-K1 recombinant cells (human) (UniProt P51654); assay: FACS on CHO-K1 clone CHOK1-hGPC3.3E9
[12] = target: human GPC3 expressed on CHO-K1 recombinant cells (human) (UniProt P51654); assay: FACS on CHO-K1 clone CHOK1-hGPC3.2B5
[13] = target: murine GPC3-His protein (Sino Biological, Cat. No. 50989-M08B) (murine) (UniProt Q8CFZ4); assay: ELISA, coated murine GPC3-His
[14] = target: human GPC3 expressed on CHO-K1 recombinant cells (human) (UniProt P51654); assay: FACS on CHO-K1 clone CHOK1-hGPC3.1C3
[15] = target: monkey GPC3-His protein (Acro, Cat. No. GP3-C5225) (monkey); assay: ELISA, coated monkey GPC3-His
[16] = target: GPC3 expressed endogenously on HepG2 cells (UniProt P51654); assay: FACS on HepG2 cells, control in the row of T2-23
[17] = target: GPC3 on HepG2 cells (human) (UniProt P51654); assay: FACS on HepG2 cells

Chain of murine GPC3-His protein (Sino Biological, Cat. No. 50989-M08B) (murine) (Q8CFZ4 25-558 limits assumed): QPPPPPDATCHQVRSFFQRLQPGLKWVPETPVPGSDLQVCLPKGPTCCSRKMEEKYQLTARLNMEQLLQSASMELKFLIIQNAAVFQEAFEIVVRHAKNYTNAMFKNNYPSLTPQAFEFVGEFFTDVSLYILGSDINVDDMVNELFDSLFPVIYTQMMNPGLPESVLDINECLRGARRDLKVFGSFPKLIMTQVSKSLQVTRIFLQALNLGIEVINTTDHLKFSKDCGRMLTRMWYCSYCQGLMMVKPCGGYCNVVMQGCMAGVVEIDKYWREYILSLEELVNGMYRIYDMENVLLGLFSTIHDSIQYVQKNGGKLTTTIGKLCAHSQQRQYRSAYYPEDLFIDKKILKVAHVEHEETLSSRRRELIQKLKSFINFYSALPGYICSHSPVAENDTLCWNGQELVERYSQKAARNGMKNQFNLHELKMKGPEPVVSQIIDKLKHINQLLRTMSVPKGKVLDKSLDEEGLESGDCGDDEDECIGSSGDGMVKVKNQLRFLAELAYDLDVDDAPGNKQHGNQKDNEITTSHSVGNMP

OD450 nm [1]: 0.09 OD450 | OD450 nm [2]: 0.09 OD450 | OD450 nm [3]: 0.09 OD450 | OD450 nm [4]: 0.11 OD450 | Max MFI [5]: 154 MFI and 258 MFI and 110 MFI | OD450 nm [6]: 0.09 OD450 | OD450 nm [7]: 0.09 OD450 | OD450 nm [8]: 0.09 OD450
Substance: hIgG1 (IgG subtype control, human IgG1) (antibody)

Mean fluorescence intensity of cells [9]: 137 MFI | OD450 at 0.0001 nM antibody [10]: 0.047 OD450 | OD450 at 0.001 nM antibody [10]: 0.048 OD450 | OD450 at 0.01 nM antibody [10]: 0.048 OD450 | OD450 at 0.1 nM antibody [10]: 0.05 OD450 | OD450 at 1 nM antibody [10]: 0.048 OD450 | OD450 at 10 nM antibody [10]: 0.05 OD450 | OD450 at 100 nM antibody [10]: 0.072 OD450 | Mean fluorescence intensity of cells [11]: 19.3 MFI | Mean fluorescence intensity of cells [12]: 19.3 MFI | OD450 at 0.0001 nM antibody [13]: 0.049 OD450 | OD450 at 0.001 nM antibody [13]: 0.051 OD450 | OD450 at 0.01 nM antibody [13]: 0.052 OD450 | OD450 at 0.1 nM antibody [13]: 0.05 OD450 | OD450 at 1 nM antibody [13]: 0.05 OD450 | OD450 at 10 nM antibody [13]: 0.055 OD450 | OD450 at 100 nM antibody [13]: 0.105 OD450 | Mean fluorescence intensity of cells [14]: 19.3 MFI | OD450 at 0.0001 nM antibody [15]: 0.048 OD450 | OD450 at 0.001 nM antibody [15]: 0.044 OD450 | OD450 at 0.01 nM antibody [15]: 0.044 OD450 | OD450 at 0.1 nM antibody [15]: 0.045 OD450 | OD450 at 1 nM antibody [15]: 0.044 OD450 | OD450 at 10 nM antibody [15]: 0.047 OD450 | OD450 at 100 nM antibody [15]: 0.056 OD450 | Mean fluorescence intensity of cells [16]: 137 MFI
Substance: hIgG1 (antibody)

OD450 at 0.0001 nM antibody [13]: 0.06 OD450 nm | OD450 at 0.001 nM antibody [13]: 0.05 OD450 nm | OD450 at 0.01 nM antibody [13]: 0.05 OD450 nm | OD450 at 0.1 nM antibody [13]: 0.06 OD450 nm | OD450 at 1 nM antibody [13]: 0.05 OD450 nm | OD450 at 10 nM antibody [13]: 0.06 OD450 nm | OD450 at 100 nM antibody [13]: 0.12 OD450 nm
Substance: hIgG1 control (antibody)

Max MFI [17]: 58.8
Substance: hIgG (antibody)
